Laboratory results published in PMC11920050 (Nature Communications, 2025).

Target: the molecule itself
Test: Western blot of cell lysate under non-denatured or denatured conditions

B1: Flag-EGFP-tagged SPESP1 (equatorial segment protein 1) expressed in CHO-K1 cells (natural protein, mouse, UniProt Q9D5A0 19-399, looked up)
chain: YPTITVLPDEEQNLNHYVHILQNLIMSVPTKEQDLGKKLSSSRTVDSAEPRSLASKVLLTPGLVSAQDVTPESDVLIRPVDETTNSRTRGFTLRRRRTQSTAFWSIRPNNISVVLRTEEPFIEKEPEPELESSRLPTEPEPELEPEPEPVAESRQMSEPEEELVTSTTPNKELTGTSRISSMATQPANTQATRITVTVKTTSTMDVSTDSEDVPQLSGQSEIPSAEDLPGRHSLNTRHEDILKKISNINAEIQQGLLGGNNSPEFKEFIKASREHLKRSLALAAAAEHKLEQMYGSNVFPEGRTSDPDNDMEMIINMLYNSRSKLSDYFNIKRVPSELREKASVVNAELRKILCVDQVEMQSLIKKLLSNNMKILNILNVP
modifications: O-GalNAc glycans (VVA-positive on blot); sites on this construct not stated
stoichiometry N: 2
